The target of the test is low-affinity anti-HER2 scFv (scFv Kd = 210 nM). Put plainly: BLI. In general terms: BLI is a label-free optical method that tracks binding on a fibre tip over time.

For the substance “human epidermal growth factor receptor 2 (HER2) (from UniProt P04626 23-1255)”, the Kd (in general, a measure of binding affinity in units of concentration) was determined as 0.21 µM.
